Three molecules from PMC4996978, “A MUB E2 structure reveals E1 selectivity between cognate ubiquitin E2s in eukaryotes” (Nature Communications, 2016) can be followed below.

For one test, the target named is T1, GST-AtUBC8 (Arabidopsis thaliana, UniProt P35131 1-148).
T1 construct: Arabidopsis thaliana ubiquitin-conjugating enzyme E2 8 (AtUBC8); also called GST-tagged AtUBC8; source: E. coli Rosetta 2 (DE3) pLacI, soluble extract fraction immobilized on GSH resin and washed
The experiment in a line: pull-down; GST-AtUBC8 immobilized on GSH resin; equimolar His-tagged AtMUB3, AtMUB3 mutants and Ub incubated separately for 15 min; washed three times with sonication buffer (50 mM Tris-HCl pH 7.5, 300 mM NaCl, 10% glycerol, 10 mM imidazole); immunoblot. As to conditions: both partners purified. Background: A western blot detects proteins with antibodies after separation by electrophoresis.

The target in the next test is T2, biotinylated E2 (Ube2D3) (human, UniProt P61077 1-147, biotin).
T2 construct: human ubiquitin-conjugating enzyme E2 D3 (Ube2D3), biotinylated, labelled with streptavidin-terbium in the assay; source: reagents adapted from the E1/E2 Lite kit (LifeSensors, Malvern, PA)
T2 sequence (P61077 whole entry): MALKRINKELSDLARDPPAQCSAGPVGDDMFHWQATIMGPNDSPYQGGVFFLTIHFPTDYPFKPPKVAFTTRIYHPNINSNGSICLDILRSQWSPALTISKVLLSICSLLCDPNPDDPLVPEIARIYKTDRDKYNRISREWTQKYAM
The experiment in a line: inhibition of E2 activation (HTRF-FRET E2∼Ub formation assay); 1 nM E1 (HsUBE1), 10 μM Mg-ATP, 50 nM Ub-fluorescein, 0.9 nM streptavidin-terbium, 5 nM biotinylated Ube2D3; 50 mM Tris-HCl pH 7.5, 5 mM MgCl2, 0.05% CHAPS; HsMUB pre-incubated with E2 for 15 min; initial velocity against HsMUB concentration fit to a one-site binding model; IC50 equivalent to Ki. The following applies: both partners purified.

What is called Ki is a measure of affinity in units of concentration, obtained from inhibition or displacement.

Positions count from the first letter of the chain named. Names and notes keep the numbering of the source.

T1 sequence (P35131 whole entry): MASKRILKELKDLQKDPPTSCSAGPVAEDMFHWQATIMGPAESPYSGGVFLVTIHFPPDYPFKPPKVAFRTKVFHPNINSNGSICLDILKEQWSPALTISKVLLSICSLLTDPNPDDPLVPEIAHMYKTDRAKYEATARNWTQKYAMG

B1: AtMUB3-His (natural protein, Arabidopsis thaliana, UniProt Q9SW27 1-118, looked up)
chain: MPEEESIDIKFRLYDGSDIGPFRYSAASTVDFLKQRVVSDWPKGKTVVPKGINEVKLISSGKILENNKTVGQCKTPFGDIAGGVIVMHVVVQPSLAKSKTEKKVDKAPKAVICTCTIL
notes: coding region cloned without stop codon into pET28b; also called His-tagged AtMUB3; not shown: His6, C-terminal, kept
Consider B1, for which, in the test with GST-AtUBC8, the binding result is “binds”.

B2: AtMUB3 P76A F77A G78A D79A I80A (All A) (natural protein, Arabidopsis thaliana)
chain: B1 chain with P76A, F77A, G78A, D79A, I80A
notes: Generated by bridging-PCR and cloned into pET28b; also called AtMUB3 All A LBL mutant; AtMUB3 with the core LBL residues ProPheGlyAspIle all converted to alanines
As to B2, the binding result with GST-AtUBC8 was “binds”.

B3: HsMUB (natural protein, human, UniProt O95164 1-117, looked up)
chain: MSSNVPADMINLRLILVSGKTKEFLFSPNDSASDIAKHVYDNWPMDWEEEQVSSPNILRLIYQGRFLHGNVTLGALKLPFGKTTVMHLVARETLPEPNSQGQRNREKTGESNCCVIL
notes: Homo sapiens membrane-anchored ubiquitin-fold protein (HsMUB); coding region cloned without stop codon into pET28b; also called human homologue of MUB; source: E. coli Rosetta 2 (DE3) pLacI, purified
As to B3, the Ki with biotinylated E2 (Ube2D3) stood at 220 ± 16 nM.
